Results published in patent US20230295336A1 (INHIBRX, published 2023).

Experiments:
[1] = biological target: T1, Folate Receptor Alpha (FRα) (UniProt P15328 25-234, limits assumed); test: flow cytometry on Ovcar-5 cells, anti-human IgG Fc secondary
T1 construct: whole, on cells; also called FR-Alpha
Experimental: (§1) Binding of exemplary multispecific polypeptide constructs of the disclosure containing an antigen-binding domain directed against Folate Receptor Alpha (FRα) to CD3 on the surface of primary T cells and to FRα expressing cells (Ovcar-5) was assessed by flow cytometry. The tumor antigen binding domains of the tested constructs bind the Folate Receptor Alpha (FRα), which is not expressed on the primary T cells. The tested constructs included cx1356 and cx681, containing a non-cleavable linker of 3 amino acids in cx1356 or a non-cleavable linker of 18 amino acids in cx681 (see FIG. 2B and Table E1.1).
(§2) For the studies described in FIGS. 5A and 5B, 100 nM of each construct, cx1356 or cx681 was used and assessed for binding to either the Ovcar-5 cells or primary T-cells. An anti-CD3 antibody was included as a control. A titration of the constrained CD3 engaging constructs on either FRα expressing cells (Ovcar-5; FIG. 5C) or isolated primary T-cells (FRα negative; FIG. 5D), was conducted to assess binding. Bound constructs were detected using fluorophore-conjugated anti-human IgG Fc secondary antibody.

[2] = biological target: T2, CD3 on the surface of primary T cells (human, UniProt P07766 23-207); test: flow cytometry on isolated primary T cells, anti-human IgG Fc secondary
T2 construct: whole, on cells; CD3 is a multimeric complex (ε, γ, δ, ζ chains) with the TCR; In the reporter assays CD3 stood on Jurkat cells; also called CD3ε
Experimental: as §1, §2

[3] = biological target: T3, B7H3 (CD276) (human, UniProt Q5ZPR3 29-534); test: flow cytometry on A375 cells
T3 construct: whole, on cells
T3 sequence (looked up): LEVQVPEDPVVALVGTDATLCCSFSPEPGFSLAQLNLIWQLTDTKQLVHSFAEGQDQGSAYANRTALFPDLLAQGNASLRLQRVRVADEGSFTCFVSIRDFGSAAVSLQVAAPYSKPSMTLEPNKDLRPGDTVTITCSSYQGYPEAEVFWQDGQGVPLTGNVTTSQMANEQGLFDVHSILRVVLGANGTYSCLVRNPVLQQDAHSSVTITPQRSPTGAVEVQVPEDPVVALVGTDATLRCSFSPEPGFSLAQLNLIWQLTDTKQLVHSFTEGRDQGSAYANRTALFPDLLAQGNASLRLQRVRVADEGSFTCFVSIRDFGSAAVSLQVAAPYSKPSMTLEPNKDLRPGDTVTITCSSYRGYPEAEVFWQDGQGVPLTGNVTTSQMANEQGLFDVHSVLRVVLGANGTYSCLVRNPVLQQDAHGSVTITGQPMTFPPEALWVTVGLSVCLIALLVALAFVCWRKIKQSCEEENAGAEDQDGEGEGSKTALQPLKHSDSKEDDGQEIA
Experimental: (§3) Binding of exemplary multispecific constructs containing an antigen-binding domain directed against B7H3 were assessed for binding to B7H3 positive A375 tumor cells or primary T-cells. The constructs were generated containing antigen-binding domain(s) that were either sdAbs or a FABs, and that were positioned either only N-terminal to the Fc or both N-terminal to the Fc and C-terminal to the anti-CD3 binding domain (see FIGS. 3A and 3C and Table E1.1). Among the various formats of constructs tested included: sdAb-Fc-dsFV-sdAb (cx3072, cx5952) sdAb-Fc-FV (cx6079), sdAb-Fc-dsFV (cs6080, cx6081), MAB-FV (cx5067) and MAB-dsFV (cx6083, cx6084), where the FV represents the anti-CD3 binding domain composed of VH and VL domain pairs and “ds” notes disulfide stabilized via an engineered interdomain disulfide bond.
(§4) Binding was assessed as described above via flow cytometry using a fluorophore-conjugated anti-human Fc secondary antibody. cx3072 bound to A375 cells with high affinity (FIG. 6A) but not to isolated T-cells (FIG. 6B). […]

[4] = biological target: T2, CD3 on the surface of primary T cells; test: flow cytometry on isolated T cells
Experimental: as §3, §4

T2 sequence (P07766 23-207): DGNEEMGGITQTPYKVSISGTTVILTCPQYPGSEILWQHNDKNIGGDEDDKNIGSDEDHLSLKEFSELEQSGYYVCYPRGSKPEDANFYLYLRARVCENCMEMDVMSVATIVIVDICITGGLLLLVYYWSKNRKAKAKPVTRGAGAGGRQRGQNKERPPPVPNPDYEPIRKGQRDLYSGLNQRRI
T1 sequence (P15328 25-234 limits assumed): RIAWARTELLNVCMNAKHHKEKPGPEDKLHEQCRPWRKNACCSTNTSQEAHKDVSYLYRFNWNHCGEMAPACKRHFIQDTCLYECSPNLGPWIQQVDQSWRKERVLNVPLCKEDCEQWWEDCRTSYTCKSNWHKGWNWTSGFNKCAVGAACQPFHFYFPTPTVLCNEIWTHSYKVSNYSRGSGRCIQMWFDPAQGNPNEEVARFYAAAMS

B1: cx681 (bispecific antibody)
chain 1: not shown
chain 2: QLQLQESGGGLVQPGGSLRLSCAASGFTLDNYAIGWFRQAPGKEREGVSCISSSDGSTYYADSVKGRFTISRNNAKGTVYLLMNSLKPEDTAVYYCATELVPACTYSNGRGPLDGMDYWGKGTQVTVKPPGGGGDKTHTCPPCPAPELLGGPSVFLFPPKPKDTLMRSRTPEVTCVVVDVSHEDPEVKFNWYVDGVEVHNAKTKPREEQYNSTYRVVSVLTVLHQDWLNGKEYKCKVSNKALPAPIEKTISKAKGQPREPQVCTLPPSRDELTKNQVSLSCAVKGFYPSDIAVEWESNGQPENNYKTTPPVLDSDGSFFLVSKLTVDKSRWQQGNVFSCSVMHEALHNHYTQKSLSLSPGGSGGGGSGGGGSGGGGSQAVVTQEPSLTVSPGGTVTLTCGSSTGAVTTSNYANWVQQKPGKSPRGLIGGTNKRAPGVPARFSGSLLGGKAALTISGAQPEDEADYYCALWYSNHWVFGCGTKLTVLGGGGEVQLLESGGGEVQPGGSLRLSCAASGSIFSIDATAWYRQAPGKQRELVAIITSSGSTNYPESVKGRFTISRDNAKNTVYLQMSSLRAEDTAVYYCNAITRYGGSTYDFWGQGTLVTVKP
notes: Heterodimer of chain 1 and chain 2; anti-CD3 Fv disulfide-stabilized (VH G44C / VL G100C); the shortest entry is written; also called FRα-targeting constrained CD3 engaging construct; gs18 linker
binding result [1]: binds
binding result [2]: no binding (tested: 100 nM)

B2: cx6079 (bispecific antibody)
chain 1: EVQLVESGGGEVQPGGSLRLSCAASGFSFSSNVMMWVRQAPGKGLEWVSTIYSSGTGTFYAESVKGRFTISRDNAKNTLYLQMSSLRPEDTAVYYCATSGPVRGWGPRSQGTLVTVKPPGGGGDKTHTCPPCPAPPVAGPSVFLFPPKPKDTLMISRTPEVTCVVVDVKHEDPEVKFNWYVDGVEVHNAKTKPREEEYNSTYRVVSVLTVLHQDWLNGKEYKCKVSNKALPAPIEKTISKAKGQPREPQVYTLPPSREEMTKNQVSLTCDVSGFYPSDIAVEWESDGQPENNYKTTPPVLDSDGSFFLYSKLTVDKSRWEQGDVFSCSVMHEALHNHYTQKSLSLSPGKGGGGSGGGGSGGGGSEVQLVESGGGLVQPGGSLRLSCAASGFTFSTYAMNWVRQAPGKGLEWVGRIRSKYNNYATYYADSVKGRFTISRDDSKNTLYLQMNSLRAEDTAVYYCVRHGNFGDSYVSWFAYWGQGTLVTVSS
chain 2: EVQLVESGGGEVQPGGSLRLSCAASGFSFSSNVMMWVRQAPGKGLEWVSTIYSSGTGTFYAESVKGRFTISRDNAKNTLYLQMSSLRPEDTAVYYCATSGPVRGWGPRSQGTLVTVKPPGGGGDKTHTCPPCPAPPVAGPSVFLFPPKPKDTLMISRTPEVTCVVVDVKHEDPEVKFNWYVDGVEVHNAKTKPREEQYNSTYRVVSVLTVLHQDWLNGKEYKCKVSNKALPAPIEKTISKAKGQPREPQVYTLPPSREQMTKNQVKLTCLVKGFYPSDIAVEWESNGQPENNYKTTPPVLDSDGSFFLYSKLTVDKSRWQQGNVFSCSVMHEALHNHYTQKSLSLSPGKGGGGSGGGGSGGGGSQAVVTQEPSLTVSPGGTVTLTCGSSTGAVTTSNYANWVQQKPGKSPRGLIGGTNKRAPGVPARFSGSLLGGKAALTISGAQPEDEADYYCALWYSNHWVFGGGTKLTVL
notes: Heterodimer of chain 1 and chain 2; anti-CD3 Fv not disulfide-stabilized; two identical B7H3 sdAbs, both N-terminal to the Fc; also called B7H3-targeting constrained CD3 engaging construct; sdAb-Fc-FV
binding result [3]: binds
binding result [4]: no binding

B3: cx5952 (bispecific antibody)
chain 1: EVQLVESGGGEVQPGGSLRLSCAASGFSFSSNVMMWVRQAPGKGLEWVSTIYSSGTGTFYAESVKGRFTISRDNAKNTLYLQMSSLRPEDTAVYYCATSGPVRGWGPRSQGTLVTVKPPGGGGDKTHTCPPCPAPGGPSVFLFPPKPKDTLMISRTPEVTCVVVDVSHEDPEVKFNWYVDGVEVHNAKTKPREEQYNSTYRVVSVLTVLHQDWLNGKEYKCKVSNKALPAPIEKTISKAKGQPREPQVYTLPPCRDELTKNQVSLWCLVKGFYPSDIAVEWESNGQPENNYKTTPPVLDSDGSFFLYSKLTVDKSRWQQGNVFSCSVMHEALHNHYTQKSLSLSPGGGGGGSGGGGGSGGGGGSEVQLVESGGGLVQPGGSLRLSCAASGFTFNTYAMNWVRQAPGKCLEWVARIRSKYNNYATYYADSVKGRFTISRDDAKNTLYLQMSSLRAEDTAVYYCVRHGNFGNSYVSWFAYWGQGTLVTVKPGGGGEVQLVESGGGEVQPGGSLRLSCAASGFTFSSYHMSWFRQAPGKQRELVATSHHGGTTNYAGSVKGRFTISRDNAKNTVYLQMNTLRAEDTAVYYCKADHGYQGRGYWGQGTLVTVKP
chain 2: DKTHTCPPCPAPGGPSVFLFPPKPKDTLMISRTPEVTCVVVDVSHEDPEVKFNWYVDGVEVHNAKTKPREEQYNSTYRVVSVLTVLHQDWLNGKEYKCKVSNKALPAPIEKTISKAKGQPREPQVCTLPPSRDELTKNQVSLSCAVKGFYPSDIAVEWESNGQPENNYKTTPPVLDSDGSFFLVSKLTVDKSRWQQGNVFSCSVMHEALHNRYTQKSLSLSPGGGGGGSGGGGGSGGGGGSQAVVTQEPSLTVSPGGTVTLTCGSSTGAVTTSNYANWVQQKPGQAFRGLIGGTNKRAPGVPARFSGSLLGGKAALTISGAQPEDEADYYCALWYSNHWVFGCGTKLEIK
notes: Heterodimer of chain 1 and chain 2; anti-CD3 Fv disulfide-stabilized (VH G44C / VL G100C); also called B7H3-targeting constrained CD3 engaging construct; sdAb-Fc-dsFV-sdAb
binding result [4]: no binding

B4: cx1356 (bispecific antibody)
chain 1: not shown
chain 2: QLQLQESGGGLVQPGGSLRLSCAASGFTLDNYAIGWFRQAPGKEREGVSCISSSDGSTYYADSVKGRFTISRNNAKGTVYLLMNSLKPEDTAVYYCATELVPACTYSNGRGPLDGMDYWGKGTQVTVKPPGGGGDKTHTCPPCPAPELLGGPSVFLFPPKPKDTLMRSRTPEVTCVVVDVSHEDPEVKFNWYVDGVEVHNAKTKPREEQYNSTYRVVSVLTVLHQDWLNGKEYKCKVSNKALPAPIEKTISKAKGQPREPQVCTLPPSRDELTKNQVSLSCAVKGFYPSDIAVEWESNGQPENNYKTTPPVLDSDGSFFLVSKLTVDKSRWQQGNVFSCSVMHEALHNHYTQKSLSLSPGGSQAVVTQEPSLTVSPGGTVTLTCGSSTGAVTTSNYANWVQQKPGKSPRGLIGGTNKRAPGVPARFSGSLLGGKAALTISGAQPEDEADYYCALWYSNHWVFGCGTKLTVLGGGGEVQLLESGGGEVQPGGSLRLSCAASGSIFSIDATAWYRQAPGKQRELVAIITSSGSTNYPESVKGRFTISRDNAKNTVYLQMSSLRAEDTAVYYCNAITRYGGSTYDFWGQGTLVTVKP
notes: Heterodimer of chain 1 and chain 2; anti-CD3 Fv disulfide-stabilized (VH G44C / VL G100C); the shortest entry is written; also called FRα-targeting constrained CD3 engaging construct; gs3 linker
binding result [1]: binds
binding result [2]: no binding (tested: 100 nM)
